The record followed here is patent CN110498854A (UNIV ARMY MEDICAL, dated 2019).

The target of test [1] is T1, 金黄色葡萄球菌肠毒素B (SEB) (Staphylococcus aureus (ATCC BAA-1556), UniProt P01552 28-266).
Test [2] addresses T1, 金黄色葡萄球菌肠毒素B (SEB). Put plainly: ELISA, antigen coated. Background: In an ELISA, binding on a coated surface is turned into a signal by an enzyme label.

T1 sequence (P01552 28-266, tags left off): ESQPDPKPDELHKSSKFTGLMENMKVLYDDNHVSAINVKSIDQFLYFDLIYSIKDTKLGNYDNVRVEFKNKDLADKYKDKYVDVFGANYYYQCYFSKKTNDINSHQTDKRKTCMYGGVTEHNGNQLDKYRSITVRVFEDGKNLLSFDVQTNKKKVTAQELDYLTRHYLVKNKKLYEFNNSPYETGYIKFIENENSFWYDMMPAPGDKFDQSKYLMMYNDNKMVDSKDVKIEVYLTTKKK

B1: 全人源SEB单克隆抗体M0313 (antibody, V domains shown)
VH: EVQLVQSGGGLVQPGGSLRLSCAASGFTLSNYGMSWVRQSPGKGLEWVSGISGGSGSTCYADFVKGRFTISRDKSKNTLSLEMNSLRAEDRAVYYCAKDREYYNSGYYYFPYQYAMDVWGQGTTVTVSS
VL: QSVLTQPPSASGTPGQRVTISCSGGRPNIGGNSVYWYQQFPGTSPKLLIYTNDQRPSGVPDRFSGSKSGTSASLAISGLRSEDEADYYCAAWDDSLSAYVFGAGTKVTVL
The term Kd denotes a measure of binding affinity in units of concentration. High values mean weaker binding, low ones tighter binding. In general, koff refers to the first-order rate constant of dissociation. High values mean fast dissociation, low ones slow dissociation. The kon is a measure of how fast the partners come together. The term EC50 denotes the concentration at which the effect is half-maximal. The low end stands for greater potency, the high end for weaker potency. In the test with 金黄色葡萄球菌肠毒素B (SEB) [1], B1 gave a Kd of 3.22 nM, a koff of 0.00292 s⁻¹ and a kon of 908000 M⁻¹ s⁻¹. This molecule gave an EC50 with 金黄色葡萄球菌肠毒素B (SEB) [2] of 7.3 ng/mL.
